In article PMC2706497:

Substrate: NCCCCc1ccccc1
Assay: steady-state kinetics
Assay type: biochemical, Homo sapiens
Conditions: FAD (covalent)

B1: MAO-B (Homo sapiens) (protein)
chain: SNKCDVVVVGGGISGMAAAKLLHDSGLNVVVLEARDRVGGRTYTLRNQKVKYVDLGGSYVGPTQNRILRLAKELGLETYKVNEVERLIHHVKGKSYPFRGPFPPVWNPITYLDHNNFWRTMDDMGREIPSDAPWKAPLAEEWDNMTMKELLDKLCWTESAKQLATLFVNLCVTAETHEVSALWFLWYVKQCGGTTRIISTTNGGQERKFVGGSGQVSERIMDLLGDRVKLERPVIYIDQTRENVLVETLNHEMYEAKYVISAIPPTLGMKIHFNPPLPMMRNQMITRVPLGSVIKCIVYYKEPFWRKKDYCGTMIIDGEEAPVAYTLDDTKPEGNYAAIMGFILAHKARKLARLTKEERLKKLCELYAKVLGSLEALEPVHYEEKNWCEEQYSGGCYTTYFPPGILTQYGRVLRQPVDRIYFAGTETATHWSGYMEGAVEAGERAAREILHAMGKIPEDEIWQSEPESVDVPAQPITTTFLERHLPSVPGLLRLIGLTTIFSATALGFLAHKRGLLVRV
- Km: 19 ± 3 µM
